Among the data in paper doi:10.1101/2024.05.08.592267 (2024) are Kd values, retold here.

One may read the Kd as a measure of binding affinity in units of concentration. Read a high Kd as weaker binding.

This assay has as its target P69P4. Description: BLI. In general terms: BLI is a label-free optical method that tracks binding on a fibre tip over time.

B1: biotinylated natural Ara h 2 (natural protein)
chain: RQQWELQGDRRCQSQLERANLRPCEQHLMQKIQRDEDSYGRDPYSPSQDPYSPSQDPDRRDPYSPSPYDRRGAGSSQHQERCCNELNEFENNQRCMCEALQQIMENQSDRLQGRQQEQQFKRELRNLPQQCGLRAPQRCDLEVESGGRDRY
modifications: biotin (position not given)
In turn, B1 registered a Kd of 3.88 pM.
